Molecular target: Robo2, human, full-length, non-tagged (human) (UniProt Q9HCK4)
Experiment: cell-based or functional assay

Sequence of Robo2, human, full-length, non-tagged (human) (Q9HCK4 22-1378 limits assumed, form in doubt): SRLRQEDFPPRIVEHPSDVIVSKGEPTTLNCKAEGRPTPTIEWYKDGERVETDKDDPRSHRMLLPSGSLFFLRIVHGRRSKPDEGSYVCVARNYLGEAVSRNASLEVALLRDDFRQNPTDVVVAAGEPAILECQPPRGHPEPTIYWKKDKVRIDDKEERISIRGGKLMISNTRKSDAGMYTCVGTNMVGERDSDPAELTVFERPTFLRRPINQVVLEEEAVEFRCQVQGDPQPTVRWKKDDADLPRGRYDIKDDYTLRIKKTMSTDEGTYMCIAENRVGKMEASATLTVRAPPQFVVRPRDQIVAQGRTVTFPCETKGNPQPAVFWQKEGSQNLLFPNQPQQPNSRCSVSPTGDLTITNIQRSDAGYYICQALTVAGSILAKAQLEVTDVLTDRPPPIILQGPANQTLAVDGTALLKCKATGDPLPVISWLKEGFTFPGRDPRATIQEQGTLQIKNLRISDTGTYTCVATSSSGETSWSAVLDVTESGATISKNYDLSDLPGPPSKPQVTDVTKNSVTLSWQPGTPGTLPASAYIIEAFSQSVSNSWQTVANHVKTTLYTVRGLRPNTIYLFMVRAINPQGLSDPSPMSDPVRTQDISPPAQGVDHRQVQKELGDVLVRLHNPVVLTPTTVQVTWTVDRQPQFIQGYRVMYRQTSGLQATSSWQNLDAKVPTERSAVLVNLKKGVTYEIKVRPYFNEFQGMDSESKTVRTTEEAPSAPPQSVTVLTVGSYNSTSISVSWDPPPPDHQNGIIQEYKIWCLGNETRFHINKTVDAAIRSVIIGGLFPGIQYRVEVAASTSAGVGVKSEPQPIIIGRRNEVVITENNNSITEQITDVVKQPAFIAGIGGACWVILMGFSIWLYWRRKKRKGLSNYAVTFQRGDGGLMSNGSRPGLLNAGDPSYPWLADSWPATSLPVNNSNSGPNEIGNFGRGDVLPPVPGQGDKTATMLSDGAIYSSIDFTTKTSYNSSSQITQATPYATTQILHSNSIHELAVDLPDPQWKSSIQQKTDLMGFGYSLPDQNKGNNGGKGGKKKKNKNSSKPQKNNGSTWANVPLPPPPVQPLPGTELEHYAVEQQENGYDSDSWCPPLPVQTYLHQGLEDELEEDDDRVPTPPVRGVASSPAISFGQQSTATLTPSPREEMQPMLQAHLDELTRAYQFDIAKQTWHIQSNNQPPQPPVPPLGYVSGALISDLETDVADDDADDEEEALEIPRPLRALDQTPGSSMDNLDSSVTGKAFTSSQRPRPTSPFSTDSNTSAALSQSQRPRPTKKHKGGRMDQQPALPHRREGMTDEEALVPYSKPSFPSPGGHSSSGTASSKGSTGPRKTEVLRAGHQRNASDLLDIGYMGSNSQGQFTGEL

How did the percentage of CD16/7-NCD clustered HEK cells with F-actin tails (control medium without Slit2: ~80%) turn out when “Slit2 (myc-tagged), in conditioned medium of stably transfected cells (ligand)” was run?
The percentage of CD16/7-NCD clustered HEK cells with F-actin tails (control medium without Slit2: ~80%) was 40%.
